Source: patent US9327008B2, “Cell-permeant peptide-based inhibitor of kinases” (Purdue Research Foundation, priority 2008, dated 2016)

Key:
Assay type in all cases: biochemical
Abl = target: T1, Abl (Homo sapiens, UniProt P00519); experiment: Millipore radiometric kinase activity assay, Abl (h)
T1 construct: purchased Millipore (assay service)
Procedure: (§1) A commercial radiometric assay service (Millipore, Billerica, Mass.) was used to test the specificity and potency of peptides containing a coupled transduction domain and therapeutic domain, hereinafter “complete peptides”). In these assays, if the kinase is not inhibited by an inhibitor peptide, a positively charged substrate is phosphorylated with a radiolabeled phosphate group from an ATP.
(§2) In a final reaction volume of 25 μL, Abl (h) (5-10 mU) is incubated with 8 mM MOPS pH 7.0, 0.2 mM EDTA, 50 μM […] [SEQ ID NO: 48], 10 mM MgAcetate and [γ-^33P-ATP] (specific activity approx. 500 cpm/pmol, concentration as required). The reaction is initiated by the addition of the MgATP mix. After incubation for 40 minutes at room temperature, the reaction is stopped by the addition of 5 μL of a 3% phosphoric acid solution. 10 μL of the reaction is then spotted onto a P30 filtermat and washed three times for 5 minutes in 75 mM phosphoric acid and once in methanol prior to drying and scintillation counting.
(§3) IC50 values for inhibitor peptides were determined using Millipore's IC50Profiler Express service. The IC50 value was estimated from a 10-point curve of one-half log dilutions. For peptides tested for specificity, the concentration of the peptides that inhibited approximately 95% of MK2 activity was chosen to profile against a battery of kinases related to MK2, cell viability, or human disease from MilliporeKinaseProfiler service. In both assays, compounds were supplied in dimethylsulfoxide (DMSO). Every kinase activity measurement was conducted in duplicate.
(§4) Therapeutic inhibitor peptides were assayed for activity against human kinases related to MK2, cell viability, or human disease. The assays were performed using concentrations of therapeutic inhibitor peptides that yielded 2% to 8% of normal MK2 activity. Error is reported as the standard deviation between 2 samples, and “c” is rat AMPK whereas all other kinases used are human kinases.

GSK3β = target: T2, GSK3β (Homo sapiens, UniProt P49841); experiment: Millipore radiometric kinase activity assay, GSK3β (h)
T2 construct: purchased Millipore (assay service)
Procedure: as §1
In a final reaction volume of 25 μL, GSK3β (h) (5-10 mU) is incubated with 8 mM MOPS pH 7.0, 0.2 mM EDTA, 20 μM […](p)EDEEE [SEQ ID NO: 57] (phospho GS2 peptide), 10 mM MgAcetate and [γ-^33P-ATP] (specific activity approx. 500 cpm/pmol, concentration as required). The reaction is initiated by the addition of the MgATP mix. After incubation for 40 minutes at room temperature, the reaction is stopped by the addition of 5 μL of a 3% phosphoric acid solution. 10 μL of the reaction is then spotted onto a P30 filtermat and washed three times for 5 minutes in 50 mM phosphoric acid and once in methanol prior to drying and scintillation counting.
as §3, §4

Met = target: T3, Met (Homo sapiens, UniProt P08581); experiment: Millipore radiometric kinase activity assay, Met (h)
T3 construct: purchased Millipore (radiometric assay service)
Procedure: as §1
as §2, with “μL, Met” for “μL, Abl”, “EDTA, 250” for “EDTA, 50”, “NO: 56],” for “NO: 48],”
as §3, §4

Syk = target: T4, Syk (Homo sapiens, UniProt P43405); experiment: Millipore radiometric kinase activity assay, Syk (h)
T4 construct: purchased Millipore (radiometric assay service)
Procedure: as §1
In a final reaction volume of 25 μL, Syk (h) (5-10 mU) is incubated with 50 mM Tris pH 7.5, 0.1 mM EGTA, 0.1 mM Na3VO4, 0.1% β-mercaptoethanol, 0.1 mg/mL poly(Glu, Tyr) 4:1, 10 mM MgAcetate and [γ-^33PATP] (specific activity approx. 500 cpm/pmol, concentration as required). The reaction is initiated by the addition of the MgATP mix. After incubation for 40 minutes at room temperature, the reaction is stopped by the addition of 5 μL of a 3% phosphoric acid solution. 10 μL of the reaction is then spotted onto a Filtermat A and washed three times for 5 minutes in 75 mM phosphoric acid and once in methanol prior to drying and scintillation counting.
as §3, §4

T3 sequence (P08581 25-1390): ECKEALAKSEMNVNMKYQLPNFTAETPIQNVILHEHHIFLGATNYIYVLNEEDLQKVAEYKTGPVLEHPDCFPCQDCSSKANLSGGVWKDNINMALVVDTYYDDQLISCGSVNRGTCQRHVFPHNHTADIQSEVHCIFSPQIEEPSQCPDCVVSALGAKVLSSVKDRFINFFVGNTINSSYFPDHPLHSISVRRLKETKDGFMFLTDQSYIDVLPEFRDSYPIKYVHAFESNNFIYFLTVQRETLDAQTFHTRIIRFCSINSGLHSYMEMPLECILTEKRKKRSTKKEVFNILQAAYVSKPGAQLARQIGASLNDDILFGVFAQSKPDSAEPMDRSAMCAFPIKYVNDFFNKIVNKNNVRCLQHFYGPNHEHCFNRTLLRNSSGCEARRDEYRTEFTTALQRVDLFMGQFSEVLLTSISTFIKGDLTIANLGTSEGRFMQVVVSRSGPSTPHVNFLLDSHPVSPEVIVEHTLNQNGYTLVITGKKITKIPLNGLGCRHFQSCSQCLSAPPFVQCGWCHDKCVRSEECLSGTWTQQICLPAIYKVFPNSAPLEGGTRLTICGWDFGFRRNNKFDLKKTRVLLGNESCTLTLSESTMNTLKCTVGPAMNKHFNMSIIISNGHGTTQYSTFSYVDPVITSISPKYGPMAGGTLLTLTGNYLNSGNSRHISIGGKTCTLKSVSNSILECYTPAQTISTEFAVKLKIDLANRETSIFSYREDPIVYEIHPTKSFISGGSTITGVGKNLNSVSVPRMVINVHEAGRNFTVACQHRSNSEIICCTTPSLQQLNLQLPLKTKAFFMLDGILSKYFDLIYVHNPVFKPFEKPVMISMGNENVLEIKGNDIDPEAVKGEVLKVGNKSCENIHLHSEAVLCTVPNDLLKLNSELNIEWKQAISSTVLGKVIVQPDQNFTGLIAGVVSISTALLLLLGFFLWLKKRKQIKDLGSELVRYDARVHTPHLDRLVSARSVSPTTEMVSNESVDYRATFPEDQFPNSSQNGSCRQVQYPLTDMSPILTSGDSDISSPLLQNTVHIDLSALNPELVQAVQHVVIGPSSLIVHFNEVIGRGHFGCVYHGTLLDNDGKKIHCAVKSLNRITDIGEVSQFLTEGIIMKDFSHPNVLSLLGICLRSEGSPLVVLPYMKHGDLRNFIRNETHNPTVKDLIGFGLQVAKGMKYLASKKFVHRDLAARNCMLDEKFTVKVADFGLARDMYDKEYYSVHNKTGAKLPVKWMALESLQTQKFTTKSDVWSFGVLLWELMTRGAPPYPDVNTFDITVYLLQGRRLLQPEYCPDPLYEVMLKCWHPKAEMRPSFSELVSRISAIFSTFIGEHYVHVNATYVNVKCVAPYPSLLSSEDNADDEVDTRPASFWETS
T1 sequence (P00519 whole entry): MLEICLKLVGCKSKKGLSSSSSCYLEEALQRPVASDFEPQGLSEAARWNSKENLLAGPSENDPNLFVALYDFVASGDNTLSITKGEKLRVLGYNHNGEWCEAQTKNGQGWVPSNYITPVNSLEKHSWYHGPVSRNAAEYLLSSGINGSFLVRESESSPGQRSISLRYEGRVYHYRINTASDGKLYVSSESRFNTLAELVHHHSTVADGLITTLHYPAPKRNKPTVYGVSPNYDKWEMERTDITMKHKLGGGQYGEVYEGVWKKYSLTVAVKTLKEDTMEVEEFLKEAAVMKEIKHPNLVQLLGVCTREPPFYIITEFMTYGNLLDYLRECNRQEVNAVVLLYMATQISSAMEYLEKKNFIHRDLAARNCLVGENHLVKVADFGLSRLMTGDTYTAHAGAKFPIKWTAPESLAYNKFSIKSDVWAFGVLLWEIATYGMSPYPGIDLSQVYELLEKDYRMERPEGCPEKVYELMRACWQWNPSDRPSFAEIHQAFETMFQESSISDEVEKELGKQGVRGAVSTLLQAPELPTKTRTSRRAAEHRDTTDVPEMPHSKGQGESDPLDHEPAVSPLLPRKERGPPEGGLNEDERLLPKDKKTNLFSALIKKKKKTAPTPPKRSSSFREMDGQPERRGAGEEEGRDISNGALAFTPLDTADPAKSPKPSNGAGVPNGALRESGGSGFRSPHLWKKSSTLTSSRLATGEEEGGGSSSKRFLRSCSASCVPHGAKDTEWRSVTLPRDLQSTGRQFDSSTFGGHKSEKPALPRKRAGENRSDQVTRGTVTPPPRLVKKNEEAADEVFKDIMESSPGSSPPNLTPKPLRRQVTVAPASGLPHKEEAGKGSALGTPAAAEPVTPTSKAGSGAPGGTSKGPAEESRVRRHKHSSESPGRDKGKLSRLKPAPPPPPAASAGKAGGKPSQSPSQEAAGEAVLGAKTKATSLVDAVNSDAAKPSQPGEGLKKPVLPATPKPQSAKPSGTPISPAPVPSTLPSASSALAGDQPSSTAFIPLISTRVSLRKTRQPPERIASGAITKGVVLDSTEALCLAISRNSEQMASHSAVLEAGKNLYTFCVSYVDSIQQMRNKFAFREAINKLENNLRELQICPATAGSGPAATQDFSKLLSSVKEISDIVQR
T2 sequence (P49841 whole entry): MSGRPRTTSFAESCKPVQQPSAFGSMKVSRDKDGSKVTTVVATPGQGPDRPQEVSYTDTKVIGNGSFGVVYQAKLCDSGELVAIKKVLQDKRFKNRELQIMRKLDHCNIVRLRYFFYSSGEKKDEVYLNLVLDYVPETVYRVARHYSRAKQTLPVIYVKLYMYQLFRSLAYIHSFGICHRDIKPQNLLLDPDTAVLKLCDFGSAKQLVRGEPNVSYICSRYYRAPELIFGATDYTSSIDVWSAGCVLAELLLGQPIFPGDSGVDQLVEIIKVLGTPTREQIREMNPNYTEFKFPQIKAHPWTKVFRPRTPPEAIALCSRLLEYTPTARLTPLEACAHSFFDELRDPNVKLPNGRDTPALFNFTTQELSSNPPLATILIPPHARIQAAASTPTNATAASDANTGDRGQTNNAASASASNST

WLRRIKAWLRRIKALNRQLGVAA
Abl Kinase Activity (%) (+SD %) (Abl; peptide 30 μM): 24 (5) % | Abl Kinase Activity (%) (+SD %) (Abl; peptide 100 μM): 41 (2) % | GSK3β Kinase Activity (%) (+SD %) (GSK3β; peptide 30 μM): 129 (2) % | GSK3β Kinase Activity (%) (+SD %) (GSK3β; peptide 100 μM): 188 (4) % | Met Kinase Activity (%) (+SD %) (Met; peptide 30 μM): 30 (1) % | Met Kinase Activity (%) (+SD %) (Met; peptide 100 μM): 17 (3) % | Syk Kinase Activity (%) (+SD %) (Syk; peptide 30 μM): 19 (3) % | Syk Kinase Activity (%) (+SD %) (Syk; peptide 100 μM): 38 (9) %

KAFAKLAARLYRKALARQLGVAA
Abl Kinase Activity (%) (+SD %) (Abl; peptide 100 μM): 55 (0) % | GSK3β Kinase Activity (%) (+SD %) (GSK3β; peptide 100 μM): 184 (1) % | Met Kinase Activity (%) (+SD %) (Met; peptide 100 μM): 22 (3) % | Syk Kinase Activity (%) (+SD %) (Syk; peptide 100 μM): 4 (4) %
